# Experimental data from US5767078A, “Agonist peptide dimers” (priority 1995, dated 1998).
# Read-outs that look alike come from different tables or passages of the source. Bridge positions count the residues as written; N and C are the ends. Ends that are not written are not given here. Peptide text beside a SMILES is read from it.
# Assays:
# [1] = biological target: T1, truncated human EPO receptor (Homo sapiens, UniProt P19235); assay: EPO dependent cell proliferation assay, FDC-P1/trER cells; assay type: cell-based; settings: for EC50: read-out: EPO-ED50 truncated human receptor; for change in potency of dimer versus parent monomer (in parentheses), truncated human receptor: ratio of ED50 values
# T1 construct: expressed in transfected cells; host or cells: FDC-P1/trER cells (murine FDC-P1 derived)
# T1 sequence (P19235 25-468 limits assumed): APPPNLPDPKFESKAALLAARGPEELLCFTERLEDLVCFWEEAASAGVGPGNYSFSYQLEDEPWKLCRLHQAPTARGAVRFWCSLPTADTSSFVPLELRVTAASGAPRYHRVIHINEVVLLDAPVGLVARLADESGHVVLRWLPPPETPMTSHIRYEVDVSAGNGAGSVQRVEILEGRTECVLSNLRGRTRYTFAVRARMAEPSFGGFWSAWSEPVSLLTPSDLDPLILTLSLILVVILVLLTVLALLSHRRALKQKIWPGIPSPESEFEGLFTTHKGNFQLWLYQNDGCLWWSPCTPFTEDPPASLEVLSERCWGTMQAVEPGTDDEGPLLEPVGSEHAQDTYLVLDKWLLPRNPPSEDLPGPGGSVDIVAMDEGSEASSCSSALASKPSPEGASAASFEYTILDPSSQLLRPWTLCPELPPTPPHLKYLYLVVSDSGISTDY
# Procedure: (§1) After 24 hours, the cells were counted, resuspended at 800,000 cells/ml and dispensed at 40,000 cells/well. Stock solutions of the peptide dimer (5 mM in PBS) and peptide (10 mM in DMSO) were prepared and dispensed in triplicate to final concentrations of 1×10^-10 M through 1×10^-5 M and adjusted to a final volume of 0.2 ml. […] After a 42 hr incubation at 37° C. (ca. 2 cell doublings) 1 μCi/well of [^3 H] thymidine was added and the incubation continued for 6 hr at which time the cells were harvested and counted to assess [^3 H]thymidine incorporation as a measure of cell proliferation.
# murine EPO receptor = biological target: T2, murine EPO receptor (Mus musculus, UniProt P14753); assay: EPO dependent cell proliferation assay, FDC-P1/ER cells; assay type: cell-based; settings: for EPO-ED50 murine receptor / change in potency of dimer versus parent monomer (in parentheses), murine receptor: FDC-P1/ER; for EPO-ED50 murine receptor: [3H]thymidine incorporation, amount giving half of maximal activity obtained with EPO; for change in potency of dimer versus parent monomer (in parentheses), murine receptor: ratio of ED50 values
# T2 construct: expressed in transfected cells; host or cells: FDC-P1/ER cells
# T2 sequence (P14753 25-507): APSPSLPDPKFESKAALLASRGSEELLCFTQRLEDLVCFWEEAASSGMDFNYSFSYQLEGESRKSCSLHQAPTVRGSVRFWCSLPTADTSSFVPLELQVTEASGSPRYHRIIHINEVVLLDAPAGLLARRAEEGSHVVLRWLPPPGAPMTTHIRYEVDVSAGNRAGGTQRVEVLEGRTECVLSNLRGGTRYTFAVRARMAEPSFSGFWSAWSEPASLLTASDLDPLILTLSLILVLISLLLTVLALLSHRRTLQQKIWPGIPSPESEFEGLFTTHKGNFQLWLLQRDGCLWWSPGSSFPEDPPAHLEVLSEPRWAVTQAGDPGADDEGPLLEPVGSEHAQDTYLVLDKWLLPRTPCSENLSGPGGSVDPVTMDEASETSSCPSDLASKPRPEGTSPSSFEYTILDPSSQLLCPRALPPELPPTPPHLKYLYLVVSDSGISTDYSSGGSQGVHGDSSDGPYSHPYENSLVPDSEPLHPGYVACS
# Procedure: as §1
# [2] = biological target: T3, extracellular domain of the human erythropoietin receptor (EPO binding protein, EBP) (Homo sapiens, UniProt P19235); assay: Immobilized EBP based [125I]EPO competition binding assay; settings: for Relative Binding (binding relative to Seq. I. D. No. 8): IC50 in [125I]EPO competition on EBP beads, relative to Seq. I. D. No. 8 (IC50 5 μM)
# T3 construct: made in house; host or cells: E. coli
# T3 sequence (P19235 25-250 limits assumed): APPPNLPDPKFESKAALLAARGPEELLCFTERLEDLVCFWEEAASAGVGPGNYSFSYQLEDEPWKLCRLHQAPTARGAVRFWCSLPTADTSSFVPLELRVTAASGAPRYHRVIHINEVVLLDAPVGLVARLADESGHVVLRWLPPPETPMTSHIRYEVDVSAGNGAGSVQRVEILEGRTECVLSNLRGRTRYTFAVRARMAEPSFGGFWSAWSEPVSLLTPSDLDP
# Procedure: The iodoacetyl activation chemistry of Sufolink beads (Pierce Chemical Co, Rockford, Ill.) is specific for free thiols and assures that the linkage is not easily reversible. EBP-Sulfolink beads were made as follows: SulfoLink gel suspension (10 ml) was mixed with of coupling buffer (40 ml: 50 mM Tris, pH 8.3, 5 mM EDTA) and the gel was allowed to settle. […] The mixture was rocked gently for 30 minutes at room temperature and the beads were allowed to settle for 1 hour at room temperature. The supernatant was removed and retained. The beads were washed twice with 20 ml of coupling buffer. The washes were recovered as well. The beads were then treated with 20 ml of 0.05M cysteine for 30 minutes at room temperature to block unbound sites. Finally, the beads were washed with 50 ml of 1M NaCl, then with 30 ml of PBS, and resuspended in 20 ml of PBS and stored at 4° C. The amount of EBP which was covalently bound to the beads was determined by comparing the OD280 of the original EBP solution to the total OD280 recovered in the reaction supernatant and the two 20 ml washes.
# Competitive binding analysis assays of candidate peptides and dimer peptides were performed as outlined below. Individual peptides were dissolved in DMSO to prepare a stock solution […]. Dimer peptides were contained within PBS at a concentration of 5 mM.
# Initial assay points with no added peptide were included in each assay to determine total binding. Binding mixtures were incubated overnight at room temperature with gentle rocking. The beads were then collected using Micro-columns (Isolab, Inc.) and washed with 3 mL of wash buffer. The columns containing the washed beads were placed in 12×75 mm glass tubes and bound radioactivity levels determined in a gamma counter.
# [3] = FDC-P1/trER, [3H]thymidine incorporation, amount giving half of maximal activity obtained with EPO
Compound,Relative Binding (binding relative to Seq. I. D. No. 8) [2],EPO-ED50 murine receptor (murine EPO receptor) [µM],"EC50 [1, 3] [µM]",also measured
"dimeric peptide: PEG (SPA2) dimer of peptide SCHFGPLTWVCK (SEQ ID NO: 18), Example 7 (SCHFGPLTWVCK-NH2; disulfide 2-11 (inferred); also: PEG (SPA2) covalent dimer)",–,–,–,"proliferation (cpm) relative to background ([1]; 10^-5 M, human EPO receptor cell line, FIG. 8): twice as many cpm as background"
CC(C)C[C@@H]1NC(=O)[C@@H]2CCCN2C(=O)CNC(=O)[C@H](Cc2ccccc2)NC(=O)[C@H](Cc2c[nH]cn2)NC(=O)[C@@H](NC(=O)[C@H](CO)NC(=O)[C@H](Cc2ccc(O)cc2)NC(=O)[C@@H](NC(=O)CNC(=O)CN)[C@@H](C)O)CSSC[C@@H](C(=O)N[C@@H](CCCCN)C(=O)N2CCC[C@H]2C(=O)N[C@@H](CCC(N)=O)C(=O)NCC(=O)NCC(N)=O)NC(=O)[C@H](C(C)C)NC(=O)[C@H](Cc2c[nH]c3ccccc23)NC(=O)[C@H]([C@@H](C)O)NC1=O [Seq. I. D. No. 8] (H-GGTYSCHFGPLTWVCKPQGG-NH2; disulfide 6-15),–,–,–,EC50 [1]: 0.09 µM
CC(C)C[C@@H]1NC(=O)[C@@H]2CCCN2C(=O)CNC(=O)[C@H](Cc2ccccc2)NC(=O)[C@H](Cc2c[nH]cn2)NC(=O)[C@@H](NC(=O)[C@@H](N)CO)CSSC[C@@H](C(=O)N[C@@H](CCCCN)C(N)=O)NC(=O)[C@H](C(C)C)NC(=O)[C@H](Cc2c[nH]c3ccccc23)NC(=O)[C@H]([C@@H](C)O)NC1=O [peptide (SEQ ID NO: 18)] (H-SCHFGPLTWVCK-NH2; disulfide 2-11),–,–,–,activity in the in vitro cell proliferation assay (in words) (murine EPO receptor; cell line not given): inactive
Ac-GGTYSCHFGPLTWVCKPQGG (Ac-GGTYSCHFGPLTWVCKPQGG-NH2; disulfide 6-15 (inferred)) [Seq. I. D. No. 20],4,0.03,0.06,–
"mPEG/Seq. I. D. No. 8, peak #1: mono-PEG conjugate of peptide SEQ ID NO: 8 with m-SPA-PEG (MW ca. 5000), one PEG coupled; control (GGTYSCHFGPLTWVCKPQGG-NH2; disulfide 6-15 (inferred); not fully specified; also: one mPEG 5000 (m-SPA-PEG) conjugated, site not given here) [reference compound]",60,2,0.1,–
"SAP2/Seq. I. D. No. 20 covalent dimer: PEG (SPA2) dimer of peptide Ac-GGTYSCHFGPLTWVCKPQGG, Example 5 (Ac-GGTYSCHFGPLTWVCKPQGG-NH2; disulfide 6-15 (inferred); also: PEG (SPA2) covalent dimer)",12,0.2,0.05,"change in potency of dimer versus parent monomer (in parentheses), murine receptor (murine EPO receptor): -7 X"
"mPEG/Seq. I. D. No. 8, peak #2: conjugate of peptide SEQ ID NO: 8 with m-SPA-PEG (MW ca. 5000), two PEG molecules coupled; control (GGTYSCHFGPLTWVCKPQGG-NH2; disulfide 6-15 (inferred); not fully specified; also: two mPEG 5000 (m-SPA-PEG) conjugated, sites not given here) [reference compound]",> 40,1,0.4,–
"SAP2/Seq. I. D. No. 8 covalent dimer #1: PEG (SPA2, MW ca. 3400) dimer of peptide GGTYSCHFGPLTWVCKPQGG, lot #1, Example 2 (GGTYSCHFGPLTWVCKPQGG-NH2; disulfide 6-15 (inferred); not fully specified)",4,0.01,0.0015,"IC50 ([2]; concentration reducing [125I]EPO binding to EBP beads by 50%, 0.5 nM [125I]EPO): 20 µM; increase in potency versus parent peptide, murine receptor line (murine EPO receptor): 10 fold; change in potency of dimer versus parent monomer (in parentheses), murine receptor (murine EPO receptor): 10 X; ED50, cell line containing the murine EPO receptor (murine EPO receptor; text of Example 11): 0.01 µM; increase in potency versus parent peptide, human receptor line [1]: ~60 fold; change in potency of dimer versus parent monomer (in parentheses), truncated human receptor ([1]; FDC-P1/trER): 60 X; ED50, cell line containing the human EPO receptor ([1]; text of Example 11): 0.0015 µM"
GGLYACHMGPMTWVCQPLRG [Seq. I. D. No. 14],–,0.1,0.08,–
"SAP2/Seq. I. D. No. 8 covalent dimer #2: PEG (SPA2, MW ca. 3400) dimer of peptide GGTYSCHFGPLTWVCKPQGG, lot #2, Example 3 (GGTYSCHFGPLTWVCKPQGG-NH2; disulfide 6-15 (inferred); not fully specified)",3,0.01,0.002,"increase in potency versus parent peptide, murine receptor line (murine EPO receptor): 10 fold; change in potency of dimer versus parent monomer (in parentheses), murine receptor (murine EPO receptor): 10 X; increase in potency versus parent peptide, human receptor line [1]: 45 fold; change in potency of dimer versus parent monomer (in parentheses), truncated human receptor ([1]; FDC-P1/trER): 45 X"
"SAP2/Seq. I. D. No. 13 covalent dimer: PEG (SPA2) dimer of peptide GGTYSCHFGPLTWVCKPQ, Example 4 (GGTYSCHFGPLTWVCKPQ-NH2; disulfide 6-15 (inferred); also: PEG (SPA2) covalent dimer)",–,–,0.002,"change in potency of dimer versus parent monomer (in parentheses), truncated human receptor ([1]; FDC-P1/trER): 10 X"
